Source: article PMC6200642

Molecular target: recombinant UspA2 (ubiquitous surface protein A2), cloned from M. catarrhalis strain RH4 (Moraxella catarrhalis strain RH4)
Experiment: ELISA

Molecule	Kd [nM]
decorin (from UniProt P07585 31-359) (natural protein)	293
osteoadherin (natural protein, biotinylated (EZ-Link Sulfo-NHS-LC-Biotinylation kit); glycosylated) QYETYQWDEDYDQEPDDDYQTGFPFRQNVDYGVPFHQYTLGCVSECFCPTNFPSSMYCDNRKLKTIPNIPMHIQQLYLQFNEIEAVTANSFINATHLKEINLSHNKIKSQKIDYGVFAKLPNLLQLHLEHNNLEEFPFPLPKSLERLLLGYNEISKLQTNAMDGLVNLTMLDLCYNYLHDSLLKDKIFAKMEKLMQLNLCSNRLESMPPGLPSSLMYLSLENNSISSIPEKYFDKLPKLHTLRMSHNKLQDIPYNIFNLPNIVELSVGHNKLKQAFYIPRNLEHLYLQNNEIEKMNLTVMCPSIDPLHYHHLTYIRVDQNKLKEPISSYIFFCFPHIHTIYYGEQRSTNGQTIQLKTQVFRRFPDDDDESEDHDDPDNAHESPEQEGAEGHFDLHYYENQE	231
biglycan (natural protein, biotinylated (EZ-Link Sulfo-NHS-LC-Biotinylation kit); glycosylated) DEEASGADTSGVLDPDSVTPTYSAMCPFGCHCHLRVVQCSDLGLKSVPKEISPDTTLLDLQNNDISELRKDDFKGLQHLYALVLVNNKISKIHEKAFSPLRKLQKLYISKNHLVEIPPNLPSSLVELRIHDNRIRKVPKGVFSGLRNMNCIEMGGNPLENSGFEPGAFDGLKLNYLRISEAKLTGIPKDLPETLNELHLDHNKIQAIELEDLLRYSKLYRLGLGHNQIRMIENGSLSFLPTLRELHLDNNKLARVPSGLPDLKLLQVVYLHSNNITKVGVNDFCPMGFGVKRAYYNGISLFNNPVPYWEVQPATFRCVTDRLAIQFGNYKK	89
fibromodulin (natural protein, biotinylated (EZ-Link Sulfo-NHS-LC-Biotinylation kit); glycosylated) QYEDDPHWWFHYLRSQQSTYYDPYDPYPYETYEPYPYGVDEGPAYTYGSPSPPDPRDCPQECDCPPNFPTAMYCDNRNLKYLPFVPSRMKYVYFQNNQITSIQEGVFDNATGLLWIALHGNQITSDKVGRKVFSKLRHLERLYLDHNNLTRMPGPLPRSLRELHLDHNQISRVPNNALEGLENLTALYLQHNEIQEVGSSMRGLRSLILLDLSYNHLRKVPDGLPSALEQLYMEHNNVYTVPDSYFRGAPKLLYVRLSHNSLTNNGLASNTFNSSSLLELDLSYNQLQKIPPVNTNLENLYLQGNRINEFSISSFCTVVDVVNFSKLQVLRLDGNEIKRSAMPADAPLCLRLASLIEI	202
